Reference: patent publication US20240218054A1 (MABLOC, published 2024)
Positions count from the first letter of the chain named.

B1: ADI-45123 (antibody, V domains shown)
VH: EVQLLESGGGLVQPGGSLRLSCAASGFIFSNYWMSWVRQAPGKGLEWVANIKPDGSEKYYVESVRGRFTISRDNAKNSLYLQMNSLRAEDTAVFYCARDGGTVSDGLDVWGQGTTVTVSS
VL: DIRVTQSPSSLSASVGDRVTISCRASESISIYLNWYQQKPGKAPNLLIYAASSLQRGVPSRFSGSGSGTDFTLTITSLQAEDFATYYCQQTFSIWTFGQGTKVEIK
notes: full-length IgG
B2: ADI-42194 (antibody, V domains shown)
VH: EVQLQESGPGLVKPSETLSLTCTVSGGSVSSGSYYWSWIRQPPGKGLEWIGYIYDSGNTNYNPSLKSRVTISVDTSKRQFSLRLTSVTAADTAVYYCAKVEEDGYTNVVRDYWGQGTLVTVSS
VL: EIVMTQSPATLSLSPGERATLSCRASQSVSNYLAWYQQKPGQAPRLLISDASSRATGIPARFRGSGSGTDFTLTISSLEPEDFAVYYCLQRTNWPFTFGPGTKVEIK
notes: full-length IgG; also called Antibody Number 29
B3: ADI-49189 (antibody, V domains shown)
VH: EVQLVESGGGLVKPGGSLRLSCAASGFTFSDYYMSWIRQAPGKGLECIACISSSGSMIYYADSVKGRFTISRDNAKNSLYLQLNSLRVEDTAVYYCAREGTRGRMDWGQGTLVTVSS
VL: QSVLTQPASVSGSPGQSITISCTGTSSDIGGYNYVSWYQQHPGKVPKLVIYDVSNRPSGVSNRFSGSKSGNTASLTISGLQAEDEADYYCSSYTSGTTLGVFGTGTKLTVL
notes: full-length IgG; also called Antibody Number 30
B4: ADI-42786 (antibody, V domains shown)
VH: EVQLVESGPGLVKPSGTLSLTCAVSGGSISSSYWWSWVRQSPGKGLEWIGEVYHSGSTHYNPSLKSRVTISVDKSKNQFSLKLTSVTAADTAVYYCARDGEGHYYRSGDNWFDRWGQGTLVTVSS
VL: QSVLTQPPSVSAAPGQKVTISCSGSSSNIGSNYVSWYQQFPGTAPKLLIYDNSKRPSGIPDRFSGSMSGTSATLGITGLQTGDEADYYCGTWDSSLSAVVFGGGTKVTVL
notes: full-length IgG; also called Antibody Number 15
B5: ADI-42190 (antibody, V domains shown)
VH: QVQLVESGGGLVKPGGSLRLSCAASGFTFSDDYMSWIRQAPGKGLEWVSYISGSGRAMYYADSVQGRFTVSRDNAKNSLFLQMNNLRAEDTAVYYCAKHTGDKPLVWAPSVYGLDVWGQGTTVTVSS
VL: QSVLTQPASVSGSPGQSITISCTGTSSDIGAYNYVSWYQQHPGKAPKLMIYDVTNRPSGVSNRFSGSKSGSSASLTISGLQTEDEADYYCSSYTRRSTLVFGGGTKLTVL
notes: full-length IgG; also called Antibody Number 22
B6: ADI-50201 (antibody, V domains shown)
VH: QVQLVESGGGLVKPGGSLRLSCAASGFIFSDYYMNWIRQAPGKGLDWVSTISGSGKSIYYADSVKGRFTISRDNAKNSLYLQMNSLSAEDTAVYYCARVSPLDDGYGYTYYGMDVWGQGTTVTVSS
VL: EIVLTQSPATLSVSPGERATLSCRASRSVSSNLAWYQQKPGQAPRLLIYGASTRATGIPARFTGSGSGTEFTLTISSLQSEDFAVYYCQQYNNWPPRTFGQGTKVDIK
notes: full-length IgG; also called Antibody Number 17
B7: ADI-49183 (antibody, V domains shown)
VH: QVQLVESGGGLVKPGGSLRLSCVASGFTFNNYYMRWMRQAPGKGLEWVSQISSSGSIKDYADSVKGRFTVSRDNAKNSLYLQLNSLRADDTAVYFCARELSSRIDYWGQGTLVTVSS
VL: QSALTQPASVSGSPGQSITISCTGTGSDVGGYNFVSWYQQHPGKAPKLMLYDVNNRPSGVSNRFSGSKSGNTASLTISGLQAEDEADYYCSSYPGTSALVIFGGGTRLTVL
notes: full-length IgG; also called Antibody Number 24
B8: ADI-42201 (antibody, V domains shown)
VH: EVQLVESGGGVVQPGRSLRLSCVASGFTLRSYGMHWVRQVPGKGLEWVAVSWYDGSNKHYADSVKGRFSISRDNSKNTLYLQMNSLRAEDTAVYYCARAQDGQQLVNYYGMDVWGQGTTVTVSS
VL: DIQMTQSPSSLSASVGDRVTITCRASQSISSYLNWYQQKPGEAPNLLIFAASILQSGVPSRFSGSGSGTDFTLTISSLQPEDFATYYCQQSYSTPYTFGQGTKVEIK
notes: full-length IgG; also called Antibody Number 25
B9: ADI-42228 (antibody, V domains shown)
VH: EVQLLESGGGLVQPGRSLRLSCAASGFTFDDYAMHWVRQPPGKGLEWVSGISWNGGGIGYADSVKGRFTISRDNAKNSLYLQMNSLRADDTALYYCAKAENRIGYCSAGSCYLTYFDYWGQGTLVTVSS
VL: QPVLTQPASVSGSPGQSITISCTGTSSDVGGYNYVSWYQQHPGKAPKLLIYDVSNRPSGVSNRFSGSKSANSASLTISGLQAEDEADYYCNSYTSSSTLVFGGGTKLTVL
notes: full-length IgG; also called Antibody Number 19
B10: ADI-50200 (antibody, V domains shown)
VH: EVQLLESGGDLVQPGRSLRLSCAASGFNLIDYAMHWVRQVPGKGLEWVSGISWNSRSIGYADSVKGRFTISRDNAKNSLYLQMDSLKHEDTALFYCAKGAAAGPFPYFYYAMDVWGQGTTVTVSS
VL: DIQVTQSPSSLSASVGDRVTITCRASQGISNNLAWYQQKPGIFPKLLIYAASTLQSGVPSRFSGSGSGTDFILTISSLQPEDVATYYCQKYQSAPPTFGGGTKLEIK
notes: full-length IgG
B11: ADI-49205 (antibody, V domains shown)
VH: EVQLVESGGGVVQTGRSLRLSCAASGFTFSISGMHWVRQAPGKGLEWVALIWYDGTKKYYADSVKGRFTISRDDFKNTVYLQMNSLRADDTAVYYCARIKSDAFDLWGQGTTVTVSS
VL: QSALTQPPSASGSPGQSVTISCTGTSSDVGGFNYVSWYQQHPGRAPKLVIYEVNRRPSGVPDRFSGSKSGYTASLTVSGLQAEDEADYYCFSYAGSNNYVFGTGTKVTVL
notes: full-length IgG; also called Antibody Number 148
B12: ADI-48895 (antibody, V domains shown)
VH: EVQLLESGGGLVKPGGSLRLSCAASGFTFSDYYMSWIRQAPGKGLEWVSYITSSGNTKYYADSVKGRFTISRDNAKNSLYLQISSLRAEDTAVYYCARDWAELTTITNYFYPWGQGTTVTVSS
VL: DIQLTQSPSSVSASVGDRVTITCRASQGISSWLAWYQQKPGKAPKLLIHAASSLQSGVPSRFSGSGSGTDFTLTISSLQPEDFATYYCQQAKSFPPTFGQGTRLEIK
notes: full-length IgG; also called Antibody Number 18
B13: ADI-50533 (antibody, V domains shown)
VH: QVQLQESGPGLVKPSGTLSLTCAVSGGSISSSNWWSWVRQPPGKGLEWIGEIYHSGSTNYNPSLKSRVTISVDKSKNQFSLKLSSVTAADTAVYYCARVVWYSSSSHLFDYWGQGTLVTVSS
VL: QPVLTQPPSVSAAPGQKVTISCSGSSSNIGNNYVSWYQQLPGTAPKLLIYDNNKRPSGIPDRFSGSKSGTSATLGITGLQTGDEADYYCGTWDSSLSAGKVFGGGTKLTVL
notes: full-length IgG; also called Antibody Number 147
B14: ADI-42210 (antibody, V domains shown)
VH: EVQLLESGPGLVQPSGTLSLTCTASGGSISSSNWWSWVRQPPGKGLEWIGDIYHTGSTSYNPSLKSRVTISVDKSKNQFSLKLSSVTAADTAVYYCARAELSAWYYFDHWGQGTLVTVSS
VL: B13 VL with P2S, S94T, K100R
notes: full-length IgG; also called Antibody Number 16
B15: ADI-42198 (antibody, V domains shown)
VH: EVQLVESGPGLVKPSGTLSLTCAVSGGSISSNKWWSWVRQPPGKGLEWIGEIYHSGSTSYNPSLKSRVSISVDKSKNQFSLKLSSVTAADTAVYYCARVEWAYSSSWWLDYWGQGTLVTVSS
VL: B13 VL with P2S, Y88I, S94T, K100G
notes: full-length IgG; also called Antibody Number 21
B16: ADI-42144 (antibody, V domains shown)
VH: QVQLVESGGGVVQPGRSLRLSCAASGFTFSSYTMHWVRQAPGKGLEWVAVISYDGSNKYYADSVKGRFTISRDNSKNTLYLQMNSLRAEDTAVYYCARGGDYGDYESNNPAEYFQHWGQGTLVTVSS
VL: QSVLTQPPSVSGAPGQRVTISCTGSSSNIGAGYDVHWYQQLPGTAPKLLIYGNSNRPSGVPDRFSGSKSGTSASLAITGLQAEDEADYYCQSYDSSLSGHVVFGGGTKLTVL
notes: full-length IgG; also called Antibody Number 26
B17: ADI-49154 (antibody, V domains shown)
VH: QVQLQESGPGLVKPSGTLSLTCAVSGSSITSSHWWSWVRQPPGKGLAWIGDIYHSGGTTYNPSLKSRVTISVDKSKNQFSLKLSSVTAADTAVYYCARVSVSTSAWYADYWGQGTLVTVSS
VL: QSVLTQPPSVSAAPGQKVTISCSGSSSNIGNNYVSWYQQLPGTAPKLLIYDNNKRPSGIPDRFSGSKSGTSATLGITGLQTGDEANYYCGTWDTSLSTVFGGGTKLTVL
notes: full-length IgG; also called Antibody Number 23
B18: ADI-42124 (antibody, V domains shown)
VH: EVQLLESGGGLVQPGGSLRLSCAASGFTFSSYAMSWVRQAPGKGLELVSAISSSGGSTYYADSVKGRFTISRDNSKNTLYLQMNSLRAEDTALYYCAKDLFYDFWTGITIDYWGQGTLVTVSS
VL: QPVLTQPRSVSGSPGQSVTISCTGTSSDVGGYNYVSWYQQHPGKAPKLMIYDVSKRPSGVPDRFSGSKSGNTASLTISGLQAEDEADYYCCSYAGSYTFVLFGGGTKLTVL
notes: full-length IgG
B19: ADI-45151 (antibody, V domains shown)
VH: EVQLLESGGGVVQPGKSLRLSCAASGFSFGDYGMHWVRQTPDKGLEWVAVILFDGSKKFYADSVRGRFTISRDNSKNNLYLQMSSLRPEDTAVYYCAKFPLRDGGSGEGFDYWGQGTLVTVSS
VL: DIVMTQTPLSSPVTLGQPASISCRSSQSLVHSDGNTYLSWLQQRPGQPPRFLIYKISNRFSGVPDRFSGGGAGTDFTLKISRVEAEDVGVYYCMQASQFPLTFGGGTKVEIK
notes: full-length IgG; also called Antibody Number 149
B20: ADI-49194 (antibody, V domains shown)
VH: EVQLVESGGAVVQPGRSLRLSCAASGFTFSSYGMHWVRQAPGKGLESVAVIWYDGSNKNYADSVKGRFTISRDNSKNTLFLQMNSLRAEDSAMYYCAKTYDSRAYYYLDYWGQGTLVTVSS
VL: ETTLTQSPSTLSTSVGDRVTITCRASQSISSWLAWYQQKPGKAPKLLIYRASSLETEVPSRFSGSGSGTDFTLTISRLQPDDFATYFCQQYNRYPYTFGQGTKLEIK
notes: full-length IgG
B21: ADI-50219 (antibody, V domains shown)
VH: QVQLQESGPGLVKPSETLSLTCTVSGDSISVSYWSWIRQFPGKGLEWIGYIYNSGNANYNPSLESRVTISIDTSKNRFSLRLSSVTAADTAVYYCAGHREDPYGAYGASWGQGTLVTVSS
VL: EIVLTQSPATLSSSPGERATLSCRASQSVNSYLVWYQQKPGQAPRLLIYDASNRATGIPARFTGSGSGTDFTLTISSLEPEDFAVYYCQQRTNWPFTFGQGTKVDIK
notes: full-length IgG; also called Antibody Number 27
B22: ADI-48897 (antibody, V domains shown)
VH: EVQLLESGPGLVKPSETLSLTCTVSGGSLSSDSHFWGWIRQPPGKGLEWIGYIYYSGNANYNPSLQSRVTISLDKSKNQFSLRLTSVTAADTAVYYCASRKEVRGTEDYFDYWGQGTLVTVSS
VL: B21 VL with S13L, S31R, V34A, T63S, Q89H, F96W, D105E
notes: full-length IgG; also called Antibody Number 28
B23: ADI-49030 (antibody, V domains shown)
VH: QVQLVQSGGGLVQPGGSLRLSCAASGFTFSDHYMDWVRQAPGKGLEWVGRTRNKANSYTTEYAASVKGRFTISRDDSKNSLYLQMNSLKTEDTAVYYCAGVGITGTTGIDYWGQGTLVTVSS
VL: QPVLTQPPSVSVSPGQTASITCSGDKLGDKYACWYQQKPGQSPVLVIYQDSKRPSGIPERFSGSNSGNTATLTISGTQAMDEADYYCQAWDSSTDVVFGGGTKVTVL
notes: full-length IgG; also called Antibody Number 151

What follows are binders tested against T1, recombinant YFV E protein (soluble E, sE; YFV Asibi strain) (Yellow fever virus, Asibi strain, UniProt Q6DV88 286-678) (assay: BLI monovalent (IgG on tip)).
T1 construct: also called YFV E antigen; YFV E monomer
T1 sequence (Q6DV88 286-678): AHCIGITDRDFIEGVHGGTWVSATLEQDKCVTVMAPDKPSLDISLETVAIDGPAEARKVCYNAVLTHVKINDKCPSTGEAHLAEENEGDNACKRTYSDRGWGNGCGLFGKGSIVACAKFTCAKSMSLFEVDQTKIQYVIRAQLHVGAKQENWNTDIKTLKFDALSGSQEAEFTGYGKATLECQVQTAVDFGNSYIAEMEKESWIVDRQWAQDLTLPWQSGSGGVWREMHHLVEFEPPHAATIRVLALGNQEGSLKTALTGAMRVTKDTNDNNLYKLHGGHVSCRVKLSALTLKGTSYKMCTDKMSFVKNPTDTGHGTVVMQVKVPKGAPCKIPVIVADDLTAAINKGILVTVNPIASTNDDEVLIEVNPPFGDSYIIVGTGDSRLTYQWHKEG
Binder B1 has a Kd of 2.1 nM. With B2 the Kd was 5.44 nM. B3 was tested, and the Kd was 12.7 nM. Work on B4 yielded a Kd of 12.7 nM. In the case of B5, the Kd is reported as 13.1 nM. With B6 the Kd was 13.1 nM. Work on B7 yielded a Kd of 2.21 nM. B8 gave a Kd of 113 nM. B9 was tested, and the Kd was 8.64 nM. With B10 the Kd was greater than 100 nM. Work on B11 yielded a Kd of 12.9 nM. With B12 the Kd was 4.49 nM. B13 was tested, and the Kd was greater than 100 nM. For B14, the Kd was 18.7 nM. In the case of B15, the Kd is reported as 33.2 nM. B16 showed a Kd of 10.9 nM. Binder B17 has a Kd of 141 nM. In the case of B18, the Kd is reported as 5.88 nM. Binder B19 has a Kd greater than 100 nM. Work on B20 yielded a Kd of 234 nM. Work on B21 yielded a Kd of 0.859 nM. In the case of B22, the Kd is reported as 3.22 nM. In the case of B23, the Kd is reported as 125 nM.
